Experimental data published in patent publication US20230340061A1, “PEPTIDES AND METHODS FOR THE TREATMENT OF MULTIPLE SCLEROSIS” (IMCYSE SA, priority 2020, published 2023).

B1: P9 peptide KCRCVRYFLRVPSWKITLFKK (peptide)
peptide: KCRCVRYFLRVPSWKITLFKK
notes: P4 with the motif KHCPYC replaced by KCRC
B2: P10 peptide KCRPYCVRYFLRVPSWKITLFKK (peptide)
peptide: KCRPYCVRYFLRVPSWKITLFKK
notes: P4 with the motif KHCPYC replaced by KCRPYC
B3: P8 peptide KHCHGCVRYFLRVPSWKITLFKK (peptide)
peptide: KHCHGCVRYFLRVPSWKITLFKK
notes: P4 with the motif KHCPYC replaced by KHCHGC
B4: P1 peptide HCHGCGGFLRVPCWKI (peptide)
peptide: HCHGCGGFLRVPCWKI
notes: Synthetic; disclosed in WO2017182528; also called control P1 peptide; prior art peptide P1
B5: P7 peptide HCPYCGGFLRVPCWKI (peptide)
peptide: HCPYCGGFLRVPCWKI
notes: P1 with the motif HCHGC replaced by HCPYC

Target: T1, soluble HLA-DRB1*03:01 human MHC II protein (human)
T1 construct: Soluble protein purchased from the Benaroya Research Institute; also called HLA-DR3; DR3
Test: soluble-phase competition vs biotin-labelled control peptide, Eu3+-streptavidin time-resolved fluorescence

| binding result | Binder |
| --- | --- |
| binds | B1 |
| binds | KHCPYCGGFLRVPSWKITLFKK (P4 with the linker VRY replaced by GG) [P11 peptide KHCPYCGGFLRVPSWKITLFKK] |
| binds | HCHGCVRYFLRVPCWKI (P1 with the linker GG replaced by VRY) [P6 peptide HCHGCVRYFLRVPCWKI] |
| binds | KHCPYCVRYFLRVPSWKITLFKK (Synthetic) [P4 peptide KHCPYCVRYFLRVPSWKITLFKK] |
| binds | KHCPYCVRYFLRVPCWKITLFKK (Synthetic) [P5 peptide KHCPYCVRYFLRVPCWKITLFKK] |
| binds | B2 |
| binds | B3 |
| binds | B4 |
| binds | B5 |

Target: T2, soluble HLA-DRB1*04:01 human MHC II protein (human)
T2 construct: Soluble protein purchased from the Benaroya Research Institute; also called HLA-DR4; DR4
Test: as above

| binding result | Binder |
| --- | --- |
| binds | B1 |
| binds | KHCPYCGGFLRVPSWKITLFKK (P4 with the linker VRY replaced by GG) [P11 peptide KHCPYCGGFLRVPSWKITLFKK] |
| binds | HCHGCVRYFLRVPCWKI (P1 with the linker GG replaced by VRY) [P6 peptide HCHGCVRYFLRVPCWKI] |
| binds | KHCPYCVRYFLRVPSWKITLFKK (Synthetic) [P4 peptide KHCPYCVRYFLRVPSWKITLFKK] |
| binds | KHCPYCVRYFLRVPCWKITLFKK (Synthetic) [P5 peptide KHCPYCVRYFLRVPCWKITLFKK] |
| binds | B2 |
| binds | B3 |
| binds | B4 |
| binds | B5 |
